# Experiment: yeast display, Sf9 membrane polyspecificity reagent, FACS + sequencing; frameworks hold sequencing errors
# Procedure, shortened: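 Nanobodies from a synthetic yeast display library (Saccharomyces cerevisiae BJ5465), induced 36–48 hours with galactose, were stained 1 hour at 4 °C with 10% biotinylated, detergent-solubilized Sf9 membrane reagent, enriched on streptavidin microbeads, then FACS-sorted. Anti-HA (expression) and streptavidin (reagent binding) fluorescence set low and high (top ~1%) gates. Polyreactivity labels come from the gate of origin. Genes were colony-PCR amplified, MiSeq 2 × 250 sequenced and filtered by CDR length.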
row,Sequence,polyreactivity (PSR sort gate)
1,QVQLVESVGGLVQAGGCLRLSCDASGFIFTYVMGWYRQAAGKERELVAVITNGGSTYYADSVKGRFTISRDNAKNSFYLQMNSLKPEDTAVYYCAARDRFRYDAYYYWGLGTQVTVSS,high polyreactivity
2,QVQLVESVGGLVQAGGILRLSSAASGRIFYFYAMGWYRQAPGKERELVAGINWNGGSTHYADSVKGRFTISRDNAKNTVYLQMNSLKPEDTAVYYCAADGYYGQYGGHMGYWGQGTQVTVSS,high polyreactivity
3,QVQLVESVGGLVQAGGILRLSSAASGSTFERYAMGWDRQAPGKEREFVATINWGGGSTYYADSVKGRFTISRDNAKKTVYLQMNSLKPEDTAVDYCNAYVLYQSWRFSYDYWGQGTHVTVSS,low polyreactivity
4,QVQLVESVGGLVQAGGRLRLSSAASGFTFAFHAMGSYRQAPGKERELVAAISCSGVSTYYADSVKWRFTLSRDNEKNTDYLQMNSLKPEDTAVKYCAVGAVASSHRAGGKRHEYWGQGTQVTLSS,low polyreactivity
5,QVQLVESVGGLVQAGGSHRLSCAASGRTFQSNGMGWYRHAPGKERELDAAITWSSGTTYYADSVKGRFTISRDNAKNTVYLQMNSLKPEDTAVYYCAADCGHRNCLYYSGFGYWGQGTQVTVSS,low polyreactivity
6,QVQLVESVGGLVQAGGSHRLSCAASGSIFGYYTMGWYRQAPGKERELVAAITYSGGSTYYADSVKGRFTISRDNAKNTVYLQMNSLKPEDTAVYYCNAKSAAHRYVRRHDYWGLGTQVTVSS,low polyreactivity
7,QVQLVESVGGLVQAGGSHRLSCAASGSTFYRYAMGWYRQAPGKERELVAAISRSGGTTYYADSVKGRFTISRDNAKNTVYLQMNSLKPDDTAVYYCNARGRYEYGYWGQGTEVTVSS,high polyreactivity
8,QVQLVESVGGLVQAGGSLRISCAASGRITQIYAMGWSRQAPRKEWELVARITSTDSTYYADSVKGRFTISRDNAKKTVYLKMNSLTPEDTAVYYCAASWWSPYDYWGQGTQVTVSS,low polyreactivity
9,QVQLVESVGGLVQAGGSLRISCAASGSTFPWYAMGWYRQAPGKERELVASITSGTTTNYADSVKGRFTISRDNAKNTVYLQRNSLKPEDTADYYCAASWVYQYDYWGQGTQVSVSS,low polyreactivity
10,QVQLVESVGGLVQAGGSLRISCAASGSTLTRNTMGWYRPAPGKEREFVATITRSGGSTYYADSVKGRFTISRDNAKNTVYLQMNSLKPEDTAVYYCAVRRQTFRYVYPGMDYWGQGTQVTVSS,high polyreactivity
11,QVQLVESVGGLVQAGGSLRLICAASGFIFWDYAMGSDRQAPGKERELVAAISDSGGDTYYAESVKGRFTISRDNAKNTVYLQMNSLKPEDTAVYFCAADLGRNYDYWGQGTQVTVLS,low polyreactivity
12,QVQLVESVGGLVQAGGSLRLICAASGLTFEWYTMGWYRQATGNERELVAVITVSGSSTYYADSVKGRFTISRDNAKNTVYLQMNSLKPEDTAVYYCARKTYYTGDFLGREYGYWGQGTQVTVSS,low polyreactivity
13,QVQLVESVGGLVQAGGSLRLICAASGSIFYPNAMGWYRQAPGKERELVAAISYSGTSTNYADSVKGRFTISRDNAKNTVYLQMNSLKPEDTAVYYCAARGFPHRRHSLYDYWGQGTQVTVSS,low polyreactivity
14,QVQLVESVGGLVQAGGSLRLICAASGSTFRVNAIGWYRQAPGKEREFVAAITGNAGSTYYADSVKGRFTISRDNAKNTVYLQMNSLKPEDTAVYYCAAGLPGYDGDYWGQGTQVTVSS,low polyreactivity
15,QVQLVESVGGLVQAGGSLRLSCAASGFIFSGNTMGWYRQAPGKERELVAAITSGGGRTYYADSVKGRFTISRDNAKNTVYLQMNSLKPEDTAVYYCNTAFVYEYDYWGQGTQVTVSS,high polyreactivity
16,QVQLVESVGGLVQAGGSLRLSCAASGFIFWPYAMGWSRQAPGKERELVAGITSDGSTHYADSVKGRFTISRDNAKNTVYLQINSLKPQDTAVYYCAKGIRYGYRVRVYYWGQGTQVTVSS,high polyreactivity
17,QVQLVESVGGLVQAGGSLRLSCAASGFIFYGYAMGWYRQAPGKERELVAAISRSGTSTYYADSVKGRFTISRDYAKNTVYLQMNSVKPDDTAVYYCDADYVGWKWGSRGAIYKHYYWGQGTQVTVSS,high polyreactivity
18,QVQLVESVGGLVQAGGSLRLSCAASGFIIRYYAMGWYRQAPGKERELVAVISSNGARTSYADSVKGRFTISRDNAKNTVYLQMNSLKPEDTAVYYCNARAWSRFPPVGHDYWGQGTQVTVSS,high polyreactivity
19,QVQLVESVGGLVQAGGSLRLSCAASGFIIYGYGMGWYRQAPGKERELVAAISARSTRTYYADSVKGRFTISRDNAKNTVYLQMNSLKPEDTAVYYCAAVRGPTYRNDNYGYWGQGTQVTVSS,high polyreactivity
20,QVQLVESVGGLVQAGGSLRLSCAASGFTFHDYAMGWYRQAPGKERELVAAIYFSGGRTYYADSVKGRFTISRDNAKNTVYLQMNSLKPEDNAVYYCNVPYYSFRELSSYYWGQGTQVTVSS,high polyreactivity
21,QVQLVESVGGLVQAGGSLRLSCAASGFTFRRYAMGWYRQAPGKERELVAAISYSGGITYYADSVKGRFTISRDNAKNTVYLQMNSLKPEDTAVYYCAADYFAPYKTYEYWGQGTQVTVSS,high polyreactivity

row,Sequence,polyreactivity (PSR sort gate)
1,QVQLVESVGGLVQAGGSLRLSCAASGFTFSSNAMGWYRQAPGKERELVAAISGTGGSTYYSDSVKVRITISRDNAKNTFYLLMNRLKPDDKAVYYCARVYNFYTSGYDYWGKGTQVTVSS,high polyreactivity
2,QVQLVESVGGLVQAGGSLRLSCAASGFTFTPYGMGWYRQAPGKERELVAAITWNGGRTYYADSVKGRFTISRDNAKNTVYLQMNSLKPEDTAVYYCAAVAWSWQKRGYWGQGTQVTVSS,high polyreactivity
3,QVQLVESVGGLVQAGGSLRLSCAASGFTFYTYAMGWYRQAPGKERELVAAINQRGGRTYYADSVKGRFTISRDNAKNTVYLQMNSLKPEDTAVYYCAKSPPPKTRYDYWGQGTQVTVSS,high polyreactivity
4,QVQLVESVGGLVQAGGSLRLSCAASGFTLFFYAMGWYRQAPGKERELVARITSRAGRTYYADSVKGRFTISRDNAKNTVYLQMNSLKPEDNAVFYCNTRDFSGYVHALSLYDYWGQGTQVTVSS,high polyreactivity
5,QVQLVESVGGLVQAGGSLRLSCAASGGIFDTYVMGWYRQAPGKERELVAAISSSGSTTYADSVKGRFTISRDNAKNTVYLQMNSLKPEDTAVYYCNADYSTIWRYDYWGQGTQVTVSS,low polyreactivity
6,QVQLVESVGGLVQAGGSLRLSCAASGGIFWVYAMGWYRQAPGKERELVADISIADSTNYADSVKGRFTISRDNAKNTVYLQMNSLKPEDTAVYYCNAVPSQHDEFDYWGQGTQVTVSS,low polyreactivity
7,QVQLVESVGGLVQAGGSLRLSCAASGIIFVYYVMGWYRQAPGKERELVASIDGSGGSTNYADSVKGRFTISRDNAKNTVYLQMNSLKPEDTAVYYCNADNILYWSTLDYWGQGTQVTVSS,low polyreactivity
8,QVQLVESVGGLVQAGGSLRLSCAASGIIFWWYAIGWYRQAPGKERELVAAINWSGSSTYYADSVKGRFTISRDNAKNTVYLQMKSLKPEDTAVYYCATAGIIQAESEYLSGYDYWGQGTQVTVSS,high polyreactivity
9,QVQLVESVGGLVQAGGSLRLSCAASGINFGFNTMGWYRQAPGKERELVAAINGSDGSTYADSVKGRFTISRDNAKNTVYLQMNSLKPEDTAVYYCAADAYDGEGTYPFEYWGQGTQVTVSS,low polyreactivity
10,QVQLVESVGGLVQAGGSLRLSCAASGITFYYNAMGWSRQAPGKERELVAVITSGGSTNYADSVKGRFTISRDNAKNTVYLQMNSLKPEDTAVYYCATDKSYSSWSAQYDYWGQGTQVTVSS,low polyreactivity
11,QVQLVESVGGLVQAGGSLRLSCAASGITSGTYAMGWYRQAPGKERELVAAISSSGGRTYYADSVKGRFTISRDNAKNTVYLQMNSLKPEDTAVYYCAARIRLSLRTGYDYWGQGTQVTVSS,high polyreactivity
12,QVQLVESVGGLVQAGGSLRLSCAASGLIFIISTMGWDRQAPGKERELVAAITRRGGITYYADSVKGRFTISRDNAKNTVYLQMNSLKPEDTAVYYCAVVRPYNIWYDYWGQGTQVTVSS,low polyreactivity
13,QVQLVESVGGLVQAGGSLRLSCAASGRIFGTNAMGWYRQAPGKERELVADITSGGSTNYADSVKGRFTISRDNAKNTVYLQMNSLKPEDTAVYYCAADVIGDLRWYRDEYWGQGTQVTVSS,low polyreactivity
14,QVQLVESVGGLVQAGGSLRLSCAASGRIFPWYAKGWYRQAPGKERELVAAIRWRGGGTYYADSVKGRFTISRDNAKNTVYLQMNSLKPEDTAVYYCAARRPAKGMGYWGQGTQVTVSS,high polyreactivity
15,QVQLVESVGGLVQAGGSLRLSCAASGRIFSTYAMGWYRQAPGKERELVAAIRFSGTSTYADSVKGRFTISRDNAKNTVYLQMNSLKPEDTAVDYCAAQRYTYYRRYGYLGQGTQVTVSS,high polyreactivity
16,QVQLVESVGGLVQAGGSLRLSCAASGRIFVHYVMGWYRQAPGKERELVAAISRSGGRTYYADSVKGRFTISRDNAKNSVYLQMNSLKPEDTAVYYCATDASTYKYDYWGQGTQVTVSS,high polyreactivity
17,QVQLVESVGGLVQAGGSLRLSCAASGRIFWNYAMGWYRQATGKERELVASISYRGGSTYYADSVKGRFTISRDNAKNTVYLQMNSLKPEDTAVYYCAARTRQARRTDYGYWGQGTQVTVSS,high polyreactivity
18,QVQLVESVGGLVQAGGSLRLSCAASGRIFYRYGMGWYRQAPGKERELVASITRGGSTYYADSVKGRFTISRDNAKNTVYLQMNSLKPEDTAVYYCATKSSAGYDYWGQGTQVTVSS,low polyreactivity
19,QVQLVESVGGLVQAGGSLRLSCAASGRILYLNVMGWYRQAPGKERELVASITVSGGITYYADSVKGRFTISRDNAKNTVYLQMNSLKPEDTAVYYCAVDAYPPFFYFTSVWFSYDYWGQGTQVTVSS,low polyreactivity
20,QVQLVESVGGLVQAGGSLRLSCAASGRTFAAYAMGWYRQAPGKERELVAGITSSSVRTYYADSVKGRFTISRDNAKNTVYLQMNSLKPEDTAVYYCNARADGSSSRWRPYSKFYYWGQGTQVTVSS,low polyreactivity
